Results on three molecules are retold here after patent US20190040138A1 (AKESO BIOPHARMA, published 2019).

Experiment [1] has as its target T1, PD-1-mIgGFc fusion protein.
T1 construct: also called PD-1-mFc; PD-1-mIgGFc antigen
As to the kind of experiment: competitive ELISA on coated PD-1-mIgGFc; competitor PDL1-mIgG2aFc 0.3 µg/ml; antibody 1.5 µg/ml; replicate 1. The protocol:
(§1) A 96-well ELISA plate was coated with PD-1-mIgGFc antigen in a concentration of 0.5 μg/ml (50 μl per well) by incubation at 4° C. overnight.
(§2) The 18A10 H1L1, 18A10 H2L2 and 18A10 H3L3 antibodies each were diluted from 3 μg/ml in series by 1:3, with 7 gradient antibody solutions obtained for each antibody. The 7 gradient antibody solutions for each antibody and the blank PBS control (50 μl per well) were respectively added into the blocked 96-well ELISA plate for incubation at room temperature for 10 minutes.
(§3) The absorbance of solution in each well was measured with the microplate reader under a wavelength of 450 nm.

Experiment [2] deals with T1, PD-1-mIgGFc fusion protein. Put plainly: ELISA on coated PD-1-mFc; antibody 1 µg/ml diluted 1:9; replicate 2. The protocol: (§4) An ELISA plate was coated with PD-1-mFc antigen in a concentration of 0.5 μg/ml (50 μl per well) by incubation at 4° C. overnight.
The ELISA plate coated with the PD-1-mFc antigen was blocked with 1% BSA in the PBS buffer at 37° C. for 2 hours, and washed with 1×PBST buffer containing 1% Tween-20 for three times, with gently patting to dryness.
as §3
For orientation: An ELISA detects its analyte on a solid surface through an enzyme-linked reagent.

Experiment [3] concerns the target biotin-labeled PD-1 antigen (UniProt Q15116 25-167, limits assumed, biotin-labeled (site not stated)). Put plainly: BLI (Fortebio), biotin-labeled PD-1 on SA sensor. The protocol:
Kinetic characteristic parameters of 18A10 H1L1, H2L2 and H3L3 antibodies were determined using the Fortebio molecule interaction instrument.
The biotin-labeled PD-1 antigen was immobilized on the surface of the SA sensor. […] Assays for H2L2 and H3L3 are the same as H1L1. Results of kinetic characteristic parameters of the H1L1, H2L2 and H3L3 antibodies are shown in Table 4, FIG. 4, FIG. 5 and FIG. 6.
On the technique in general: Biolayer interferometry detects binding as a change in optical thickness at a sensor tip.

The target in experiment [4] is T2, PD-1 antigen stably expressed on the surface of BB007 cells (UniProt Q15116 25-288, limits assumed).
T2 construct: whole, on cells; also called target protein PD-1 on the surface of the BB007 cell
Put plainly: flow cytometry on BB007 cells; antibody 1 nM. The protocol:
(§5) The binding efficiencies of H1L1, H2L2 and H3L3 antibodies to PD-1 antigen stably expressed on the surface of cells (named as BB007 cells) were determined by flow cytometry. The BB007 cells were obtained by routine trypsin digestion, and then washed with PBS buffer once, followed by dividing into several tubes, with 2×10⁵ cells per tube. After dilution into concentrations of 20 nM, 10 nM, 5 nM, 1 nM, 0.1 nM and 0 nM with the PBS buffer containing 1% BSA for each of the H1L1, H2L2 and H3L3 antibodies, individual antibodies in a volume of 100 μl were added into individual tubes and incubated on ice for 1 hour. After the mixture was washed with the PBS buffer once, 100 μl FITC-Goat-Anti-Human IgG (in 1:500 dilution) was added for each tube and incubated on ice for 1 hour, followed by addition of 300 μl the PBS buffer for detecting fluorescence signal with a FITC channel on the flow cytometer.
On the technique in general: In flow cytometry, cells or beads pass a laser one at a time.

For experiment [5], the target named is T1, PD-1-mIgGFc fusion protein. As to the kind of experiment: competitive ELISA on coated PD-1-mIgGFc; competitor PDL1-mIgG2aFc 0.3 µg/ml; antibody 1.5 µg/ml diluted 1:3; replicate 2. The protocol: as §1, §2
(§6) After the 96-well ELISA plate was washed with the PBST buffer for three times and gently patted to dryness, goat anti-mouse IgG-HRP (H+L) as a secondary antibody in 1:5000 dilution (50 μl per well) was added for incubation at 37° C. for 1 hour.

For experiment [6], the target named is T1, PD-1-mIgGFc fusion protein. As to the kind of experiment: competitive ELISA on coated PD-1-mIgGFc; competitor PDL1-mIgG2aFc 0.3 µg/ml; antibody 1.5 µg/ml diluted 1:81; replicate 2. Here is the method: as §1, §2, §3
For experiment [7], the target named is T1, PD-1-mIgGFc fusion protein. As to the kind of experiment: competitive ELISA on coated PD-1-mIgGFc; competitor PDL1-mIgG2aFc 0.3 µg/ml; antibody 1.5 µg/ml diluted 1:729; replicate 2. The protocol:
as §1, §2, §3

Experiment [8] addresses T1, PD-1-mIgGFc fusion protein. Put plainly: ELISA on coated PD-1-mFc. Here is the method:
as §4, §3

Experiment [9] has as its target T1, PD-1-mIgGFc fusion protein. Put plainly: competitive ELISA on coated PD-1-mIgGFc; competitor PDL1-mIgG2aFc 0.3 µg/ml; antibody 1.5 µg/ml diluted 1:3; replicate 1. The protocol: as §1, §2, §6
In experiment [10] the target is T1, PD-1-mIgGFc fusion protein. Put plainly: competitive ELISA on coated PD-1-mIgGFc; competitor PDL1-mIgG2aFc 0.3 µg/ml; antibody 1.5 µg/ml diluted 1:9; replicate 2. The protocol: as §1
[…] The 7 gradient antibody solutions for each antibody and the blank PBS control (50 μl per well) were respectively added into the blocked 96-well ELISA plate for incubation at room temperature for 10 minutes.
as §6

Experiment [11] deals with T1, PD-1-mIgGFc fusion protein. As to the kind of experiment: ELISA on coated PD-1-mFc; antibody 1 µg/ml; replicate 1. Here is the method:
as §4
(§7) After the ELISA plate was washed with the PBST buffer for three times and gently patted to dryness again, TMB as a developer in 50 μl per well was added for incubation at room temperature for 5 to 10 minutes.
as §3

The target of experiment [12] is T1, PD-1-mIgGFc fusion protein. As to the kind of experiment: ELISA on coated PD-1-mFc; antibody 1 µg/ml diluted 1:3; replicate 2. The protocol:
as §4, §7, §3

Experiment [13] has as its target T1, PD-1-mIgGFc fusion protein. Put plainly: ELISA on coated PD-1-mFc; antibody 1 µg/ml diluted 1:3; replicate 1. Here is the method:
as §4, §7, §3

Experiment [14] concerns the target T1, PD-1-mIgGFc fusion protein. As to the kind of experiment: ELISA on coated PD-1-mFc; antibody 1 µg/ml diluted 1:81; replicate 2. The protocol: as §4, §7, §3
Experiment [15] deals with T1, PD-1-mIgGFc fusion protein. As to the kind of experiment: competitive ELISA on coated PD-1-mIgGFc; competitor PDL1-mIgG2aFc 0.3 µg/ml; antibody 1.5 µg/ml diluted 1:243; replicate 1. Here is the method: as §1, §2, §6
Experiment [16] addresses T1, PD-1-mIgGFc fusion protein. Put plainly: competitive ELISA on coated PD-1-mIgGFc; competitor PDL1-mIgG2aFc 0.3 µg/ml; antibody 1.5 µg/ml diluted 1:27; replicate 2. The protocol:
as §1, §2, §3

Experiment [17] has as its target T2, PD-1 antigen stably expressed on the …. As to the kind of experiment: flow cytometry on BB007 cells; antibody 10 nM. Here is the method: as §5

What is called Kd is the equilibrium constant for the complex coming apart. Low readings indicate higher affinity, high ones lower affinity. Usually koff stands for the first-order rate constant of dissociation. The term kon denotes a measure of how fast the partners come together. The low end stands for slower complex formation, the high end for faster complex formation. In general, EC50 refers to the midpoint of the concentration-response curve. Read a low EC50 as an effect from little substance.

Chain of biotin-labeled PD-1 antigen (Q15116 25-167 limits assumed): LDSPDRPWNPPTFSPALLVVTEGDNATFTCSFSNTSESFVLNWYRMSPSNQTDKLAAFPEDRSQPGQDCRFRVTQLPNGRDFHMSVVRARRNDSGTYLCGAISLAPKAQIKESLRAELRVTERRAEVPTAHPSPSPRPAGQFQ
T2 sequence (Q15116 25-288 limits assumed): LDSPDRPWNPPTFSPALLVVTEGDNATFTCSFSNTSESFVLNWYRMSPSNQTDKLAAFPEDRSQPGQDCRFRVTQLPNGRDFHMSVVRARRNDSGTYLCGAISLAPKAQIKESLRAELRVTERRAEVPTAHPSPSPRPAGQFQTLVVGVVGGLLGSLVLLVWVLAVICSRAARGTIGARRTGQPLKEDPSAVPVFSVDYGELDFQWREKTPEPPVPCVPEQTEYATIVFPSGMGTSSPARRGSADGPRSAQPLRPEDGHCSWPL
T1 sequence (chain, as listed by the source limits assumed): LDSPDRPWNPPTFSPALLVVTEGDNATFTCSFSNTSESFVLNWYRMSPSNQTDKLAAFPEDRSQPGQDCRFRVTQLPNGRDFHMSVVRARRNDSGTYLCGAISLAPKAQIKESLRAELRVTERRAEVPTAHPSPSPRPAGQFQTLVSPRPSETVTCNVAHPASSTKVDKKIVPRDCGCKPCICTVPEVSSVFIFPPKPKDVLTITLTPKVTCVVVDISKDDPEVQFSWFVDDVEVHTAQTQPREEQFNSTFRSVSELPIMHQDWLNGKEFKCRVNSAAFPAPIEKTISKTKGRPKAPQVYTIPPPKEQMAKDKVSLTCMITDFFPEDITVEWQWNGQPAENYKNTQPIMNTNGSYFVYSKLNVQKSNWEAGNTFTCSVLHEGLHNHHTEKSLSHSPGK

B1: humanized antibody 18A10 H2L2 (antibody, V domains shown)
VH: EVQLVQSGGGLVQPGGSLKLSCAASGFTFSSYGMSWVRQAPGKGLDWVATISGGGRDTYYPDSVKGRFTISRDNSKNNLYLQMNSLRAEDTALYYCARQKGEAWFAYWGQGTLVTVSS
VL: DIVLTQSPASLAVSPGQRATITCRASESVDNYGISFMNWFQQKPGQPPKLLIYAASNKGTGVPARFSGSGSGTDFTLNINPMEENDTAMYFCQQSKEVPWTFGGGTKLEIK
notes: also called H2L2 antibody
Turning to B1, the “absorbance at 450 nm (competition)” value in experiment [1] is 0.11; in [5] it was 0.097; in experiment [6], 1.1; in [7], 1.19; in experiment [9], 0.097; in [10], 0.506. For the same molecule, the “absorbance at 450 nm (competition)” value in experiment [15] was 1.16; in [16] it was 0.903. Moreover, the “absorbance at 450 nm” value in [2] worked out at 1.98; in experiment [11], 2.36; in experiment [12], 2.36; in experiment [13] it was 2.13; in experiment [14] it was 1.14. Further, binding in experiment [3] was characterised by a dissociation constant (Kd) of 0.0428 nM. In experiment [3], the koff came out at 9.86e-06 s⁻¹. This molecule also gave a kon in experiment [3] of 231000 M⁻¹ s⁻¹. In addition, the values for the fluorescence intensity in experiment [4] and in experiment [17] were 92.5 and 349, respectively. For the same molecule, in experiment [8], the EC50 came out at 0.111 nM.

B2: humanized antibody 18A10 H3L3 (antibody, V domains shown)
VH: EVQLVQSGGGLVQPGGSLKLSCAASGFTFSSYGMSWVRQAPGKGLDWVATISGGGRDTYYPDSVKGRFTISRDNSKNTLYLQMNSLRAEDTAVYYCARQKGEAWFAYWGQGTLVTVSS
VL: DIVLTQSPASLAVSPGQRATITCRASESVDNYGISFMNWYQQKPGQPPKLLIYAASNKATGVPARFSGSGSGTDFTLNINPMEANDTAVYFCQQSKEVPWTFGGGTKLEIK
notes: also called H3L3 antibody
B2: the “absorbance at 450 nm (competition)” value is 0.101 in [1]; 0.108 in experiment [5]; 1.19 in experiment [6]; 1.24 in [7]; 0.103 in experiment [9]; 0.678 in [10]. The results for the “absorbance at 450 nm (competition)” value in experiment [15] and in [16] were 1.2 and 0.986, respectively. The “absorbance at 450 nm” value in experiment [2] was determined as 2.06; in experiment [11], 2.14; in [12], 2.09; in experiment [13] it was 2.29; in [14] it was 0.809. The molecule also displayed a Kd in experiment [3] of 0.114 nM. For the same molecule, the koff in [3] came out at 1.56e-05 s⁻¹. In [3], this molecule had a kon of 137000 M⁻¹ s⁻¹. Moreover, the figures for the fluorescence intensity in experiment [4] and in experiment [17] were 110 and 386, respectively. This molecule also displayed an EC50 in [8] of 0.144 nM.

B3: humanized antibody 18A10 H1L1 (antibody, V domains shown)
VH: EVQLVQSGGGLVQPGGSLKLSCAASGFTFSSYGMSWVRQTPEKGLDWVATISGGGRDTYYPDSVKGRFTISRDNSKNNLYLQMNSLRAEDTALYYCARQKGEAWFAYWGQGTLVTVSS
VL: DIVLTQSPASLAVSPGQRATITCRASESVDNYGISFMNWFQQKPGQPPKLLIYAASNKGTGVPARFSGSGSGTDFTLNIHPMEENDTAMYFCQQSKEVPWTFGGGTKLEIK
notes: also called H1L1 antibody
On to B3, for which the “absorbance at 450 nm (competition)” value in experiment [1] was found to be 0.11; in experiment [5] it was 0.109; in experiment [6], 1.14; in experiment [7], 1.3; in [9], 0.123; in experiment [10], 0.586. The “absorbance at 450 nm (competition)” value was found to be 1.26 in experiment [15] and 1.04 in experiment [16]. The “absorbance at 450 nm” value came to 1.98 in [2]; 2.47 in [11]; 2.34 in experiment [12]; 2.35 in [13]; 0.834 in experiment [14]. In addition, the Kd in experiment [3] turned out to be 0.036 nM. In experiment [3], this molecule had a koff of 1.32e-05 s⁻¹. Moreover, the kon in experiment [3] amounted to 367000 M⁻¹ s⁻¹. For the same molecule, the fluorescence intensity came to 64.4 in [4] and 316 in experiment [17]. The same molecule registered an EC50 in experiment [8] of 0.156 nM.
